Measurements reported in paper PMC7957537 (2021).

How the values were obtained:
recombinant human VEGFR2 [1] = biological target: T1, recombinant human VEGFR2 (human, UniProt P35968 20-764); test: SPR
T1 chain: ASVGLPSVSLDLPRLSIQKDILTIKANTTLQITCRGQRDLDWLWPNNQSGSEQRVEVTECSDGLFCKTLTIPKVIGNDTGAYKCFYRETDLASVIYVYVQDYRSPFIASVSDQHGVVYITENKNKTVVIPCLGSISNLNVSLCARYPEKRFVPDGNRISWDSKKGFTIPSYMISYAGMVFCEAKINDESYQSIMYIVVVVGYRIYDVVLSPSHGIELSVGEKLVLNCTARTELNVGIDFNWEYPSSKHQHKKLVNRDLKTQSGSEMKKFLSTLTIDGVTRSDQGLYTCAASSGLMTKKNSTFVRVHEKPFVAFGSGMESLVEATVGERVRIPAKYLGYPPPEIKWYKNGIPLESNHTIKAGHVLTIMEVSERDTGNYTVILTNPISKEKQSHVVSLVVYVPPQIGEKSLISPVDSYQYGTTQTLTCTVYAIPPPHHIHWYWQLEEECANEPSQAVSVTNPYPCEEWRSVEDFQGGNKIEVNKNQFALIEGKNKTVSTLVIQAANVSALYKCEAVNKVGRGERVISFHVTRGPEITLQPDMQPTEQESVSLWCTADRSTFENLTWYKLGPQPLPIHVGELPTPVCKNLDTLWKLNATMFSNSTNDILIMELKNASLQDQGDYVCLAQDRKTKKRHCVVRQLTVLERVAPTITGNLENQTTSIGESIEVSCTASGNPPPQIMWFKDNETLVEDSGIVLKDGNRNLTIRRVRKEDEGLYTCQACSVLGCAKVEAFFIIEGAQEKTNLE

recombinant human VEGFR2 [2] = biological target: T1, recombinant human VEGFR2; test: SPR

- koff (recombinant human VEGFR2 [1]): 0.000102 s⁻¹
- Kd (recombinant human VEGFR2 [2]): 0.949 nM
B1: ramucirumab (Cyramza) (antibody, V domains shown)
VH: EVQLVQSGGGLVKPGGSLRLSCAASGFTFSSYSMNWVRQAPGKGLEWVSSISSSSSYIYYADSVKGRFTISRDNAKNSLYLQMNSLRAEDTAVYYCARVTDAFDIWGQGTMVTVSS
VL: DIQMTQSPSSVSASIGDRVTITCRASQGIDNWLGWYQQKPGKAPKLLIYDASNLDTGVPSRFSGSGSGTYFTLTISSLQAEDFAVYFCQQAKAFPPTFGGGTKVDIK
